In publication PMC12859505:

Tests used:
[1] = target: HA- and RLuc8-tagged CXCR5 (HA-CXCR5-Rluc8), CXCL13-stimulated, in cells that express GRKs (GRK-phosphorylated) (UniProt P32302)
[2] = target: HA- and RLuc8-tagged CXCR5 (HA-CXCR5-Rluc8) in ΔQ-GRK HEK293 cells (GRK2/3/5/6 deleted; not phosphorylated by GRKs) (UniProt P32302)

potency (EC50) of CXCL13 (1-100 nM) for G protein activation by FLAG-CXCR5 in WT HEK293 cells: loss of BRET between Gαi1-Rluc8 and Gβ3γ9-GFP2 (TRUEPATH), area under the curve [1]: 1 nM
potency (EC50) of CXCL13 (1-100 nM) for G protein activation by FLAG-CXCR5 in ΔQ-GRK HEK293 cells: loss of BRET between Gαi1-Rluc8 and Gβ3γ9-GFP2 (TRUEPATH), area under the curve [2]: 0.85 nM
B1: CXCL13 (ligand)
chain: VLEVYYTSLRCRCVQESSVFIPRRFIDRIQILPRGNGCPRKEIIVWKKNKSIVCVDPQAEWIQRMMEVLRKRSSSTLPVPVFKRKIP
